Where two headings read alike, the source gives them in different places. Where a SMILES comes first, the peptide text is derived from it.

The target of test [1] is Rattus norvegicus PepT2 (SLC15A2), proton-coupled peptide transporter (Rattus norvegicus) (UniProt Q63424).
Test [2] addresses T1, PepT2 (Rattus norvegicus, UniProt Q63424).
T1 sequence (Q63424 1-729): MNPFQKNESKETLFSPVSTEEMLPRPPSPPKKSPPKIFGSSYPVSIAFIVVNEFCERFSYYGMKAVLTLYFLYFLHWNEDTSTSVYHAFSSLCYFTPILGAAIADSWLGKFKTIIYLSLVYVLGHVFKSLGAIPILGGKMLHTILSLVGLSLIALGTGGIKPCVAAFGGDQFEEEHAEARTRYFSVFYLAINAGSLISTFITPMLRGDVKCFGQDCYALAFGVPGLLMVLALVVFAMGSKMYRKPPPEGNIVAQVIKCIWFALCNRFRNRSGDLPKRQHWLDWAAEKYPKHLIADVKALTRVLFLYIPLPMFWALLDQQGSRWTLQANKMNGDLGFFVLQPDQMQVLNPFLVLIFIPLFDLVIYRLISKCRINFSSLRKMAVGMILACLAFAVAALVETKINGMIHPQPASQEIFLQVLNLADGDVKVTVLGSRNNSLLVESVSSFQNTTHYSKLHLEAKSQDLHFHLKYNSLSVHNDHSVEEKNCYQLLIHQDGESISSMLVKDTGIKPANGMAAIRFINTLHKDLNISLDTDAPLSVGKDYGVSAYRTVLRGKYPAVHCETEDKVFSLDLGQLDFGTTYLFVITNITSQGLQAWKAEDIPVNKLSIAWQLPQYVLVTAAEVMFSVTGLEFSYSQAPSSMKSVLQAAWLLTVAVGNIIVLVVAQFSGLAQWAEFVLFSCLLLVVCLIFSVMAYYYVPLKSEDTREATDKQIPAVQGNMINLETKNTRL
More on the design: gene Slc15a2.

The target of test [3] is T1, PepT2. The test can be described thus: inhibition of ^3H di-alanine uptake in PepT2 proteoliposomes; counterflow; SSM electrophysiology. More on the design: gene Slc15a2; purified rat PepT2 reconstituted into liposomes. The class given is biochemical.
Test [4] has as its target T2, Rattus norvegicus PepT2 (SLC15A2), proton-coupled peptide transporter (Rattus norvegicus, UniProt Q63424).
T2 construct: PepT2 (SLC15A2) from Rattus norvegicus; The extracellular domain (ECD) was in the protein but was not built in the deposited models; For the IC50 assay the same purified protein was reconstituted into POPE:POPG liposomes; The Addgene ids 167988 and 167989 are assigned to PepT2 and the nanobody by the order in the sentence; also called rat PepT2; RnPepT2; not shown: GFP, C-terminal, cleaved; His …
The test can be described thus: cryo-EM structure; PepT2 after SEC (5-6 mg/ml, DDM:CHS) mixed with 1 mM antibiotic (cefadroxil, amoxicillin or cloxacillin) for one hour, then 1.2 molar excess of nanobody D8, on ice for at least 30 minutes. To be noted: both partners purified.

di-alanine peptide: the IC50 for inhibition of the uptake of radioactive (3H) di-alanine into rat PepT2 proteoliposomes in test [1] worked out at 32 µM. Take `Nc1nc(/C(=C/CC(=O)O)C(=O)N[C@@H]2C(=O)N3C(C(=O)O)=CCS[C@H]23)cs1` [ceftibuten]: the half-maximal inhibitory concentration (IC50) in test [2] turned out to be 1000 µM. `C[C@H](N)C(=O)N[C@@H](C)C(=O)O` [di-alanine] (H-Ala-Ala-OH) displayed an IC50 in test [3] of 32 µM.

B1: nanobody D8 (inhibitory nanobody against rat PepT2) (VHH)
VHH: QVQLVESGGGLVQPGGSLRLLCVASGRPFNDYDMGWFRQAPGKEREFVASISWSGRVTDYSDSMKGRCTVSRDNAKGTMFLQMSNLVPRDTAVYYCAAARRRWTFKATNTEEFYETWGQGTQVTVSS
notes: the nanobody was resolved in the structures solved here (PDB 9BIR, 9BIS, 9BIT, 9BIU); expression plasmid in Addgene; also called the nanobody
On to B1, for which, in test [4], the binding result is reported as “binds”.

Usually IC50 stands for the concentration that gives 50% inhibition. The low end stands for greater potency in that assay, the high end for weaker potency in that assay.

(Values after article PMC11188089, “Structural basis for antibiotic transport and inhibition in PepT2, the mammalian proton-coupled peptide transporter” (Research Square, 2024).)
